Results from US20140341915A1 (DEUTSCHES KREBSFORSCHUNGSZENTRUM, published 2014).

What was measured:
[1] = target: T1, B7-H6-Ig-fusionprotein consisting of the extracellular domain of B7-H6 fused to an IgG1-Fc domain (human, UniProt Q68D85 25-267); assay: ELISA
T1 construct: Junction residues from restriction sites are not given; also called B7-H6-Ig-FP
T1 sequence: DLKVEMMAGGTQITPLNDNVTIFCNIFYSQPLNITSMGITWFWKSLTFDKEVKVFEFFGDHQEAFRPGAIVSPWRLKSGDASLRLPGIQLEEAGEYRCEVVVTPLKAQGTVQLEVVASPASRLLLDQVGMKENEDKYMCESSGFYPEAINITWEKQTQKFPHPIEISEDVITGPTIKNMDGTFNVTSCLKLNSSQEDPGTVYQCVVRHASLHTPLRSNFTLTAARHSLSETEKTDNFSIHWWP

[2] = target: T2, B7-H6 polypeptide on cells (BA/F3-B7-H6 transfectants; cell lines expressing B7-H6 endogenously) (human, UniProt Q68D85 25-454); assay: immunohistochemistry on acetone-fixed cytospins, mAb at 5 µg/ml
T2 construct: whole, on cells; The construct used for the BA/F3 transfectants is not described
T2 sequence (looked up): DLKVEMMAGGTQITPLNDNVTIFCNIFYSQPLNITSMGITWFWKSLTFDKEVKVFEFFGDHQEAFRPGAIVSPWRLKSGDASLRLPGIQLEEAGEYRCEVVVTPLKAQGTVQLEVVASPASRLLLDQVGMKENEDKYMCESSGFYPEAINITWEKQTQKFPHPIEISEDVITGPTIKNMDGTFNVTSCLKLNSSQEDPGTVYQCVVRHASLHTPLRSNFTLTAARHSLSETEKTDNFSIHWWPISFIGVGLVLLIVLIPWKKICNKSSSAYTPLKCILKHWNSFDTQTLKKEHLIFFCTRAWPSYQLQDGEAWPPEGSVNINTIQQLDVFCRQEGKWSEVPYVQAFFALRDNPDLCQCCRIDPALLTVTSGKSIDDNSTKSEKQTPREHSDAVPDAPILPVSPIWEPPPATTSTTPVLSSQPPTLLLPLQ
Experimental: Acetone-fixed cytospins of a 1:1 mixture of Ba/F3 and Ba/F3-B7-H6 cells were stained using the Dual Envision+System-HRP (Dako). After blocking endogenous peroxidase activity, cytospins were blocked with 10% goat serum and 0.1 mg/ml human
IgG. […] After incubation with 3,3′-diaminobenzidine (DAB) substrate solution, cell nuclei were counterstained with Hematoxylin and mounted cyotospins were analyzed by light microscopy.

binding result [1]: binds | binding result [2]: binds
B1: anti-B7-H6 monoclonal antibody (mAb) 1.18 (antibody, V domains shown)
VH: DVKLVESGGGLVKPGGSLKLSCAASGFTFSSYTMSWVRQTPEKRLEWVATINNGGSYTYYPDSVKGRFTISRDNAKNTLYLQMSSLKSEDTAIYYCYGYDPAWFAYWGQGTLVTVSA
VL: QAVVTQESALTTSPGETVTLTCRSSTGAVTTSNYANWVQEKPDHLFTGLIGGTNNRAPGVPARFSGSLIGDKAALTITGAQTEDEAIYFCALWYSNHWVFGGGTKLTVLG
